From patent US20140031525A1, “MUTANT G-PROTEIN COUPLED RECEPTOR PROTEINS AND METHODS FOR PRODUCING THEM” (Heptares Therapeutics Limited, priority 2011, published 2014)

How the values were obtained:
[1] = tested on: G proteins; test: G protein activation by the engineered receptor; format: biochemical
[2] = Thermostability assay of detergent-solubilised receptor by [3H]-ZM241385 binding; format: physicochemical, human; conditions: in 0.1% decylmaltoside, 30 min heating
Procedure: FIG. 1: Thermostability of the adenosine A2A receptor alone, in combination with T4 lysozyme fusion or with thermostabilising mutations. Receptors were solubilised from transiently transfected cells using 0.025% DDM. Samples were heated at the specified temperature for 30 minutes, quenched on ice and the amount of receptor remaining was determined by a single-point binding assay using 100 nM [^3H]-ZM-241,385. Data is shown for the wild type A2a receptor (circles), A2A-T4L (squares), A2A-StaR1 (previously Rant21, upright triangles), A2A-T4 engineered to include the A2A-StaR1 mutations in combination with the T4L fusion (A54L^2.52/T88A^3.36/K122A^4.43 N239A^6.41) (inverted triangles) and vs A2a-StaR2 (diamonds).
Transfected HEK293T cells were resuspended in ice cold buffer [50 mM Tris pH7.4; 400 mM NaCl; 1% DDM and protease inhibitors (Complete, Roche)]. After incubation for 1 h at 4° C., samples were centrifuged (16,000×g, 20 min, 4° C.) and the supernatant was detergent exchanged into 0.1% decylmaltoside (DM) from Ni-NTA resin.
Thermostability was assessed by incubating with [^3H]-ZM241385 radioligand (100 nM) at increasing temperatures for 30 min followed by a 5 minutes incubation on ice. Receptor bound and free radioligand were separated by gel filtration as previously described'

G protein activation [1]: no longer activated G proteins
B1: A2A-StaR2: human adenosine A2A receptor with mutations A54L, T88A, K122A, V239A, R107A, L202A, L235A, S277A (protein, UniProt P29274 1-412, looked up, variant A54L T88A K122A V239A R107A L202A L235A S277A)
Adenosine receptor A2a: MPIMGSSVYITVELAIAVLAILGNVLVCWAVWLNSNLQNVTNYFVVSLAAADILVGVLAIPFAITISTGFCAACHGCLFIACFVLVLAQSSIFSLLAIAIDRYIAIAIPLRYNGLVTGTRAAGIIAICWVLSFAIGLTPMLGWNNCGQPKEGKNHSQGCGEGQVACLFEDVVPMNYMVYFNFFACVLVPLLLMLGVYLRIFAAARRQLKQMESQPLPGERARSTLQKEVHAAKSAAIIAGLFALCWLPLHIINCFTFFCPDCSHAPLWLMYLAIVLAHTNSVVNPFIYAYRIREFRQTFRKIIRSHVLRQQEPFKAAGTSARVLAAHGSDGEQVSLRLNGHPPGVWANGSAPHPERRPNGYALGLVSGGSAQESQGNTGLPDVELLSHELKGVCPEPPGLDDPLAQDGAGVS
apparent thermostability [2]: 47 °C
